The results in this text go back to paper PMC7255924.

The experiment addresses P1 adhesin (AgI/II, SpaP, PAc) A3VP1 polypeptide (UniProt P23504). Put plainly: ITC. As to conditions: pH 5; 25°C; 100 mM NaCl; pH 5: 10 mM MES; pH 6: 50 mM sodium phosphate.

The KD is a measure of binding affinity in units of concentration. In turn, “P1 adhesin (AgI/II, SpaP, PAc) C3 domain” yielded a KD of 35.2 ± 7.0 µM.
